From the supplement of paper PMC12764529
± gives the half width of the 95% confidence interval.

How the values were obtained:
[1] = folding stability dG unfold from trypsin proteolysis; higher = more stable
How it was run: (§1)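 Sequencing followed digestion of designed mini-proteins with trypsin and chymotrypsin, each at 11 concentrations in threefold dilutions together with a no-protease condition. The mini-proteins were under 80 residues, had no cysteine, sat in a PA-tagged cDNA display construct, and were kept only if AlphaFold2 dimer inter-PAE was above 15. From the counts, Bayesian fitting gave K50, and unfolding free energy was derived against a sequence-predicted unfolded-state K50 and a shared folded-state K50, per protease or combined.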

[2] = folding stability dG unfold (combined trypsin and chymotrypsin); higher = more stable
How it was run: as §1

[3] = folding stability dG unfold from chymotrypsin proteolysis; higher = more stable
How it was run: as §1

Row | Sequence | folding stability dG unfold [1] [kcal/mol] | folding stability dG unfold [2] [kcal/mol] | folding stability dG unfold [3] [kcal/mol]
1 | SAGGSAGGSAPPPAKVKVITITETRVTYDPDTDELTVETVTLTLVVAPDGHIYVDGRWIPAEDLSAGGSAGG [r6_514_TrROS_Hall] | 2.89 ± 0.064 | 3.37 ± 0.11 | 3.68 ± 0.14
2 | SAGGSAGGSAPPVVRVTVPLPDGSVLEVEYFPDTGLVRVTLVDADGTPTTVTLPAAEVLALFSAGGSAGGSA [r18_219_TrMRF] | 2.04 ± 0.042 | 2.73 ± 0.045 | 3.026 ± 0.019
3 | SAGGSAGGSAPRPIEIMFPWDSPEDAHEEAEEIARTFAQEDNIKVKVEYYPREGWVKVKIRVSAGGSAGGSA [r18_368_TrROS] | 1.21 ± 0.085 | 1.38 ± 0.21 | 1.57 ± 0.34
4 | SAGGSAGGSAPVIRIEVDGKVYEIPADVLKEKGLTIEELAEELEKKHNIKVEKVEDGTIRVTSAGGSAGGSA [r18_7_TrROS_Hall] | 1.66 ± 0.067 | 2.1 ± 0.078 | 2.41 ± 0.039
5 | SAGGSAGGSAPVPINITFPDGSVAVNGSPDVAYLYFPEKGTIYRIPIDPDTNIITIEEVFKVPSAGGSAGGS [r12_539_TrMRF] | 0.744 ± 0.043 | 0.964 ± 0.05 | 1.03 ± 0.067
6 | SAGGSAGGSAPYFVRIKIENPDNGKPHSIEIPPNMTPEQAKEMAEELAEMHGWKITDVEYFPSAGGSAGGSA [r18_322_TrROS] | 0.227 ± 0.088 | 0.371 ± 0.068 | 0.433 ± 0.11
7 | SAGGSAGGSAQWVIRIKMPNGSTRELRIPGMTPEKAREIAKELADQNNIKDVDIYPPGQKISAGGSAGGSAG [r3_160_TrROS] | 0.981 ± 0.041 | 0.727 ± 0.1 | 0.393 ± 0.17
8 | SAGGSAGGSAREPPEAELVDERERTRPDGRPYTIAILRNPRDPREYLRIPGLGEWYPLDKLSAGGSAGGSAG [r3_181_TrMRF] | -0.574 ± 0.28 | 0.126 ± 0.12 | 0.431 ± 0.22
9 | SAGGSAGGSARIYVTLPDGTVLEVEFEGEEEAERVAEEIEAELKEKGIEPKSITIEPVSPEEGSAGGSAGGS [r12_301_JUSTAS] | 0.723 ± 0.053 | 1.27 ± 0.16 | 1.69 ± 0.075
10 | SAGGSAGGSARRDEVVERARERLLEEHPDLKPGETATVVVRDPETDEVYVFRFDGDGRVYGSAGGSAGGSAG [r3_441_TrMRF] | 0.59 ± 0.09 | 1.31 ± 0.16 | 1.59 ± 0.11
11 | SAGGSAGGSASAEEEARRLAPEGKLVYKITKGNETTIVALTPEEAEALKKKNPDVEIEPILLSAGGSAGGSA [r18_198_JUSTAS] | 1.37 ± 0.035 | 2.81 ± 0.087 | 3.176 ± 0.021
12 | SAGGSAGGSASAEIVPLTLTFPVKFKKDPNGKTKEKTVEVKIELYVIRDPNGNLYTIAKISLSAGGSAGGSA [r18_284_TrMRF] | 3.01 ± 0.14 | 3.98 ± 0.15 | 4.24 ± 0.089
13 | SAGGSAGGSASFTTTPVQFPDNTRVTTVTLDPETGTTIATVTSPSATSLVTIPGDTTTLTGSSAGGSAGGSA [r18_212_JUSTAS] | 0.551 ± 0.023 | 0.286 ± 0.045 | -0.246 ± 0.087
14 | SAGGSAGGSASIEITVKTKEEAKALAEALAKAGLVEVETLPDGSVKITVKPVKVEEVLKPPESAGGSAGGSA [r18_126_TrROS_Hall] | 1.66 ± 0.096 | 2.17 ± 0.29 | 2.61 ± 0.22
15 | SAGGSAGGSASIPELAEELGLPAEVEVTEDVEPEKPVVYPVVVREPGGGEVRVVPVVLPPGVSAGGSAGGSA [r18_313_JUSTAS] | -0.223 ± 0.14 | 0.922 ± 0.16 | 1.36 ± 0.043
16 | SAGGSAGGSASITFMLMKFDPEDNRVEVYTYKIKIERDPNGLKKFKIEPVKRQRINPDDLKAISAGGSAGGS [r12_374_TrROS] | 2.13 ± 0.12 | 2.98 ± 0.25 | 3.48 ± 0.09
17 | SAGGSAGGSASKNGKELEIKIKVDIYPFPGWGIVRVDYEIEYPDGKEQKFDLWIPVPPGDASAGGSAGGSAG [r3_330_TrROS] | 1.65 ± 0.11 | 1.66 ± 0.17 | 1.64 ± 0.088
18 | SAGGSAGGSASKPYTITLPGNYRIEVYELPDGTYLARIYFPDKPGYYALALLTDNSIYIFPSAGGSAGGSAG [r3_170_TrMRF] | 3.05 ± 0.07 | 3.47 ± 0.068 | 3.691 ± 0.019

Row | Sequence | folding stability dG unfold [1] [kcal/mol] | folding stability dG unfold [2] [kcal/mol] | folding stability dG unfold [3] [kcal/mol]
19 | SAGGSAGGSASLEEIKERAREEILKKHPDLPPDEPLTVTVKDPNSSNEYTITFNADGTVVESAGGSAGGSAG [r3_441_JUSTAS] | 0.677 ± 0.027 | 0.837 ± 0.098 | 0.814 ± 0.052
20 | SAGGSAGGSASMTSSVSTSLNPDNPPVVLVTTTYPDGTVTLTVKDLSTGTTTSTTTTPLPSSAGGSAGGSAG [r3_299_JUSTAS] | 1.17 ± 0.042 | 0.893 ± 0.059 | 0.589 ± 0.043
21 | SAGGSAGGSASMTTLEIEIELDESDIEKVKEELKKELPKNVKVIIHAYDKNGNIIEEIEIEFSAGGSAGGSA [r18_188_JUSTAS] | 1.33 ± 0.036 | 1.6 ± 0.17 | 1.61 ± 0.097
22 | SAGGSAGGSASNPKIISVENLGNYTVVLAEDPEDGSLVLVVINPDNNSALVFKDNKPVAVFSAGGSAGGSAG [r3_297_TrMRF] | 1.33 ± 0.025 | 1.45 ± 0.13 | 1.66 ± 0.11
23 | SAGGSAGGSASPAPDTLYVPVVFDVVFPLPDGSYVLVPVLAYYQLPGGTLLASVRFAVTFDSAGGSAGGSAG [r3_484_TrMRF] | 2.77 ± 0.16 | 3.86 ± 0.2 | 4.28 ± 0.098
24 | SAGGSAGGSASPIHATVSVDPETGTYTVHYPDGSTKTITGLSPEEVAALAKEMGIDEITLESAGGSAGGSAG [r3_78_JUSTAS] | 3 ± 0.08 | 2.81 ± 0.044 | 2.64 ± 0.034
25 | SAGGSAGGSASPRTYKYKFTIKYPDGSTSEYEIVDEEDKAKEKIKKEYGAEEIELEIEPEESAGGSAGGSAG [r3_220_JUSTAS] | -0.218 ± 0.41 | 0.637 ± 0.28 | 1.39 ± 0.19
26 | SAGGSAGGSASPSYLLTVTVYRPGGNPLSRRVFPPSVSPAEVEAWLATLPSDYSWEVSREPVSAGGSAGGSA [r18_431_JUSTAS] | 0.957 ± 0.051 | 2.59 ± 0.048 | 2.95 ± 0.022
27 | SAGGSAGGSASSTLRTVRFPPDTPLEEVKEALAAEFPDRDPNIKILEVRPEDGGLVVTVEVVSAGGSAGGSA [r18_360_JUSTAS] | 1.51 ± 0.033 | 1.62 ± 0.057 | 1.58 ± 0.031
28 | SAGGSAGGSASVVVTKETLPNGETRITTTTTTTTTVTVYDNNETVTTTTTTTTTTVVPKSLLSAGGSAGGSA [r18_34_JUSTAS] | 0.601 ± 0.055 | 1.38 ± 0.084 | 1.66 ± 0.039
29 | SAGGSAGGSATIYIIMPPDDPIPPNMPIRLPDGKPVRIDVEPVPLEEDGGPIFRIEVEPGATSAGGSAGGSA [r18_476_TrROS] | -0.181 ± 0.12 | -0.03 ± 0.16 | 0.0617 ± 0.21
30 | SAGGSAGGSATLTIDELRELLEKLGIDVEELSEEEIAELLKKLYPNARVERNENGELTIHPSAGGSAGGSAG [r3_375_TrROS_Hall] | 3.34 ± 0.096 | 2.99 ± 0.14 | 2.77 ± 0.12
31 | SAGGSAGGSATPPDSSVSVKVEITVGGEKKLVTATLTTLPNGTTSLTLNFDIPPDKYELSLVSAGGSAGGSA [r18_428_JUSTAS] | 2.52 ± 0.11 | 2.51 ± 0.15 | 2.74 ± 0.09
32 | SAGGSAGGSATQTIPFENPDGHPWTGTVEKRPDGMVKIDLTFPGGEKKEFYIPPGEEIRLPFSAGGSAGGSA [r18_115_TrROS] | 0.775 ± 0.057 | 0.42 ± 0.19 | 0.0335 ± 0.24
33 | SAGGSAGGSATTIEITLPDGTKAVTLSTTSENSILLLVTAPDSPSLGFIDKNNPNNIILLKSAGGSAGGSAG [r3_450_JUSTAS] | 0.467 ± 0.054 | 0.627 ± 0.093 | 0.623 ± 0.1
34 | SAGGSAGGSATVKIVETKVGADGAVYTTALVTLPNGGVLIVKTKTYPSGESETSVTLTSGKEFSAGGSAGGS [r12_995_TrMRF] | 2.21 ± 0.081 | 2 ± 0.071 | 1.74 ± 0.045
35 | SAGGSAGGSAVITTETGGDSTVTTTTSLTGEGGTLTTTTTTTTTDGTTTTTTTTTDTGLSPTSSAGGSAGGS [r12_769_JUSTAS] | 2.41 ± 0.062 | 2.16 ± 0.034 | 1.99 ± 0.024
36 | SAGGSAGGSAVVTLSPDGRRITITSRTVTYFKVTNTDDIAIETSVETVVTPLPSLGSPEVLASAGGSAGGSA [r18_6_JUSTAS] | 3.04 ± 0.13 | 2.56 ± 0.28 | 2.1 ± 0.098
